For 15 sequences, protein stability index results are on record in the supplement of paper PMC10724198.

± gives the standard deviation of the averaged measurements.

Data set [1] concerns Saccharomyces cerevisiae. Nature of the data set: protein stability index of tFT-peptide fusion (C-terminal peptide) (PSI (0-1 scale)); higher = more stable (slower turnover). As to the method: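 MPS profiling in S. cerevisiae of the tFT-X12 degron library: putative degron peptides plus stable controls, 12 aa, fused to the C-terminus of a sfGFP-mCherry timer. Cells are FACS-sorted into 8 mCherry/sfGFP bins and deep-sequenced. PSI runs from 0 (unstable) to 1 (stable). Backgrounds are wild type, das1Δ and doa10Δ at 30 °C, and wild type, das1Δ, cdc34-1 and cdc53-1 at 37 °C; 2-3 technical replicates each.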

Data set [2] deals with Saccharomyces cerevisiae. Described as above. Particulars: genetic background: wild type; temperature: 30 C.
Where [3] appears, read: genetic background: cdc34-1, temperature: 37 C.
The mark [4] stands for this setting: genetic background: cdc53-1, temperature: 37 C.
The mark [5] stands for this setting: genetic background: das1 deletion, temperature: 30 C.
Where [6] appears, read: genetic background: das1 deletion, temperature: 37 C.
[7] abbreviates: genetic background: doa10 deletion, temperature: 30 C.
The mark [8] stands for this setting: genetic background: wild type, temperature: 30 C.
Setting [9] is: genetic background: wild type, temperature: 37 C.
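Note: PSI is a weighted mean of sequencing reads over stability bins, variants kept only with over 10 reads, mCherry proximal and sfGFP distal, peptide attached via GGGS linker.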

On to RLFMVLYRRFVL, for which the protein stability index in the data set on Saccharomyces cerevisiae [1] (setting [3]) stood at 0.67 ± 0.052; in the data set on Saccharomyces cerevisiae [1] (setting [4]) it was 0.72 ± 0.013; in the data set with Saccharomyces cerevisiae [1] (setting [5]) it was 0.626 ± 0.019; with Saccharomyces cerevisiae [1] (setting [6]), 0.716 ± 0.018; in the data set on Saccharomyces cerevisiae [1] (setting [7]) it was 0.443 ± 0.015; in the data set with Saccharomyces cerevisiae [1] (setting [8]), 0.45 ± 0.023. Moreover, the protein stability index in the data set with Saccharomyces cerevisiae [1] (setting [9]) came out at 0.608 ± 0.016; in the data set on Saccharomyces cerevisiae [2], 0.491 ± 0.069.

In the case of RLVWGGLEMFVC, the protein stability index with Saccharomyces cerevisiae [1] (setting [3]) is 0.511 ± 0.024; in the data set with Saccharomyces cerevisiae [1] (setting [4]), 0.627 ± 0.013; in the data set with Saccharomyces cerevisiae [1] (setting [5]) it was 0.496 ± 0.026; in the data set on Saccharomyces cerevisiae [1] (setting [6]), 0.654 ± 0.0094; in the data set on Saccharomyces cerevisiae [1] (setting [7]), 0.109 ± 0.019; with Saccharomyces cerevisiae [1] (setting [8]) it was 0.131 ± 0.0028. For the same sequence, the values for the protein stability index in the data set on Saccharomyces cerevisiae [1] (setting [9]) and in the data set with Saccharomyces cerevisiae [2] were 0.21 ± 0.0073 and 0.235 ± 0.043, respectively.

Regarding RPALVSIFLSAY, the protein stability index came out at 0.555 ± 0.018 with Saccharomyces cerevisiae [1] (setting [3]); 0.567 ± 0.023 in the data set with Saccharomyces cerevisiae [1] (setting [4]); 0.4 ± 0.023 with Saccharomyces cerevisiae [1] (setting [5]); 0.553 ± 0.0066 in the data set with Saccharomyces cerevisiae [1] (setting [6]); 0.38 ± 0.017 in the data set with Saccharomyces cerevisiae [1] (setting [7]); 0.38 ± 0.021 in the data set with Saccharomyces cerevisiae [1] (setting [8]). For the same sequence, the protein stability index in the data set with Saccharomyces cerevisiae [1] (setting [9]) was found to be 0.532 ± 0.0076; with Saccharomyces cerevisiae [2], 0.444 ± 0.027.

As for RPLRRPRLPLLL, the protein stability index in the data set on Saccharomyces cerevisiae [1] (setting [3]) came out at 0.654 ± 0.014; with Saccharomyces cerevisiae [1] (setting [4]) it was 0.698 ± 0.025; in the data set on Saccharomyces cerevisiae [1] (setting [5]), 0.646 ± 0.0082; in the data set on Saccharomyces cerevisiae [1] (setting [6]) it was 0.6926 ± 0.0026; in the data set on Saccharomyces cerevisiae [1] (setting [7]) it was 0.363 ± 0.011; in the data set with Saccharomyces cerevisiae [1] (setting [8]), 0.397 ± 0.035. The figures for the protein stability index with Saccharomyces cerevisiae [1] (setting [9]) and in the data set on Saccharomyces cerevisiae [2] were 0.581 ± 0.01 and 0.4634 ± 0.0032, respectively.

With RQFRNPLYAFVC, the protein stability index in the data set with Saccharomyces cerevisiae [1] (setting [3]) turned out to be 0.496 ± 0.043; in the data set on Saccharomyces cerevisiae [1] (setting [4]) it was 0.687 ± 0.011; in the data set on Saccharomyces cerevisiae [1] (setting [5]) it was 0.566 ± 0.019; with Saccharomyces cerevisiae [1] (setting [6]), 0.697 ± 0.014; in the data set on Saccharomyces cerevisiae [1] (setting [7]), 0.124 ± 0.0069; in the data set with Saccharomyces cerevisiae [1] (setting [8]) it was 0.137 ± 0.0092. Also, the protein stability index is 0.187 ± 0.035 with Saccharomyces cerevisiae [1] (setting [9]) and 0.193 ± 0.021 in the data set with Saccharomyces cerevisiae [2].

For RQRQLAKKQKNA, the protein stability index is 0.601 ± 0.043 in the data set with Saccharomyces cerevisiae [1] (setting [3]); 0.7044 ± 0.0043 in the data set with Saccharomyces cerevisiae [1] (setting [4]); 0.646 ± 0.0074 in the data set with Saccharomyces cerevisiae [1] (setting [5]); 0.73 ± 0.0076 in the data set with Saccharomyces cerevisiae [1] (setting [6]); 0.141 ± 0.032 in the data set with Saccharomyces cerevisiae [1] (setting [7]); 0.181 ± 0.021 in the data set on Saccharomyces cerevisiae [1] (setting [8]). In addition, the protein stability index with Saccharomyces cerevisiae [1] (setting [9]) amounted to 0.306 ± 0.038; in the data set with Saccharomyces cerevisiae [2], 0.322 ± 0.016.

As to RRFKINKKNKKF, the protein stability index was determined as 0.683 ± 0.028 with Saccharomyces cerevisiae [1] (setting [3]); 0.749 ± 0.035 with Saccharomyces cerevisiae [1] (setting [4]); 0.64 ± 0.048 in the data set on Saccharomyces cerevisiae [1] (setting [5]); 0.761 ± 0.016 in the data set with Saccharomyces cerevisiae [1] (setting [6]); 0.172 ± 0.026 with Saccharomyces cerevisiae [1] (setting [7]); 0.189 ± 0.061 with Saccharomyces cerevisiae [1] (setting [8]). Besides, the protein stability index came to 0.524 ± 0.12 in the data set on Saccharomyces cerevisiae [1] (setting [9]) and 0.339 ± 0.052 in the data set on Saccharomyces cerevisiae [2].

Regarding RRWGFRSFLVGI, the protein stability index was determined as 0.728 ± 0.018 with Saccharomyces cerevisiae [1] (setting [3]); 0.7869 ± 0.0035 with Saccharomyces cerevisiae [1] (setting [4]); 0.712 ± 0.026 in the data set on Saccharomyces cerevisiae [1] (setting [5]); 0.803 ± 0.026 with Saccharomyces cerevisiae [1] (setting [6]); 0.645 ± 0.041 with Saccharomyces cerevisiae [1] (setting [7]); 0.647 ± 0.022 in the data set on Saccharomyces cerevisiae [1] (setting [8]). Also, the protein stability index in the data set on Saccharomyces cerevisiae [1] (setting [9]) amounted to 0.7579 ± 0.0061; with Saccharomyces cerevisiae [2], 0.7307 ± 0.0056.

With RSGGVPGFGRLC, the protein stability index in the data set with Saccharomyces cerevisiae [1] (setting [3]) came out at 0.703 ± 0.033; in the data set with Saccharomyces cerevisiae [1] (setting [4]) it was 0.7361 ± 0.0064; in the data set on Saccharomyces cerevisiae [1] (setting [5]) it was 0.661 ± 0.02; with Saccharomyces cerevisiae [1] (setting [6]), 0.7301 ± 0.003; in the data set with Saccharomyces cerevisiae [1] (setting [7]), 0.658 ± 0.034; in the data set with Saccharomyces cerevisiae [1] (setting [8]), 0.653 ± 0.022. Besides, the protein stability index in the data set on Saccharomyces cerevisiae [1] (setting [9]) stood at 0.723 ± 0.037; in the data set with Saccharomyces cerevisiae [2], 0.745 ± 0.014.

Turning to RSLRLFGCLGSL, the protein stability index in the data set on Saccharomyces cerevisiae [1] (setting [3]) was determined as 0.756 ± 0.029; in the data set with Saccharomyces cerevisiae [1] (setting [4]) it was 0.762 ± 0.027; with Saccharomyces cerevisiae [1] (setting [5]), 0.647 ± 0.019; in the data set on Saccharomyces cerevisiae [1] (setting [6]), 0.751 ± 0.021; in the data set with Saccharomyces cerevisiae [1] (setting [7]), 0.658 ± 0.039; with Saccharomyces cerevisiae [1] (setting [8]), 0.647 ± 0.023. For the same sequence, the protein stability index in the data set with Saccharomyces cerevisiae [1] (setting [9]) worked out at 0.753 ± 0.016; in the data set on Saccharomyces cerevisiae [2], 0.7185 ± 0.0059.

Turning to RSWMRHVLRVAS, the protein stability index in the data set on Saccharomyces cerevisiae [1] (setting [3]) amounted to 0.543 ± 0.048; in the data set with Saccharomyces cerevisiae [1] (setting [4]) it was 0.701 ± 0.0072; in the data set with Saccharomyces cerevisiae [1] (setting [5]) it was 0.525 ± 0.026; in the data set on Saccharomyces cerevisiae [1] (setting [6]), 0.719 ± 0.025; in the data set on Saccharomyces cerevisiae [1] (setting [7]), 0.0958 ± 0.0031; in the data set with Saccharomyces cerevisiae [1] (setting [8]), 0.104 ± 0.01. Moreover, the values for the protein stability index in the data set with Saccharomyces cerevisiae [1] (setting [9]) and in the data set with Saccharomyces cerevisiae [2] were 0.154 ± 0.013 and 0.194 ± 0.004, respectively.

Consider RVDEVVKKLRTL, for which the protein stability index with Saccharomyces cerevisiae [1] (setting [3]) turned out to be 0.62 ± 0.027; in the data set with Saccharomyces cerevisiae [1] (setting [4]), 0.665 ± 0.047; in the data set on Saccharomyces cerevisiae [1] (setting [5]), 0.667 ± 0.012; in the data set on Saccharomyces cerevisiae [1] (setting [6]), 0.707 ± 0.0091; in the data set with Saccharomyces cerevisiae [1] (setting [7]), 0.0971 ± 0.035; in the data set with Saccharomyces cerevisiae [1] (setting [8]), 0.107 ± 0.028. Besides, the values for the protein stability index in the data set on Saccharomyces cerevisiae [1] (setting [9]) and in the data set on Saccharomyces cerevisiae [2] were 0.17 ± 0.025 and 0.195 ± 0.043, respectively.

RVHYELEQIVIK: the protein stability index in the data set on Saccharomyces cerevisiae [1] (setting [3]) came out at 0.632 ± 0.1; with Saccharomyces cerevisiae [1] (setting [4]), 0.699 ± 0.019; in the data set on Saccharomyces cerevisiae [1] (setting [5]), 0.581 ± 0.0072; with Saccharomyces cerevisiae [1] (setting [6]) it was 0.664 ± 0.059; in the data set with Saccharomyces cerevisiae [1] (setting [7]), 0.585 ± 0.053; in the data set with Saccharomyces cerevisiae [1] (setting [8]), 0.574 ± 0.025. The protein stability index came to 0.62 ± 0.064 in the data set with Saccharomyces cerevisiae [1] (setting [9]) and 0.518 ± 0.089 in the data set with Saccharomyces cerevisiae [2].

As for RVSVNDGRRDSV, the protein stability index in the data set on Saccharomyces cerevisiae [1] (setting [3]) amounted to 0.712 ± 0.046; in the data set on Saccharomyces cerevisiae [1] (setting [4]) it was 0.723 ± 0.016; in the data set with Saccharomyces cerevisiae [1] (setting [5]), 0.652 ± 0.039; in the data set on Saccharomyces cerevisiae [1] (setting [6]) it was 0.73 ± 0.013; in the data set on Saccharomyces cerevisiae [1] (setting [7]) it was 0.681 ± 0.011; in the data set on Saccharomyces cerevisiae [1] (setting [8]) it was 0.664 ± 0.015. The protein stability index in the data set on Saccharomyces cerevisiae [1] (setting [9]) came out at 0.707 ± 0.022; in the data set on Saccharomyces cerevisiae [2], 0.557 ± 0.18.

With RWFPPPQYLRLV, the protein stability index in the data set on Saccharomyces cerevisiae [1] (setting [3]) was found to be 0.567 ± 0.021; in the data set on Saccharomyces cerevisiae [1] (setting [4]), 0.648 ± 0.014; in the data set with Saccharomyces cerevisiae [1] (setting [5]), 0.598 ± 0.02; in the data set on Saccharomyces cerevisiae [1] (setting [6]) it was 0.68556 ± 0.00021; with Saccharomyces cerevisiae [1] (setting [7]), 0.19 ± 0.032; in the data set on Saccharomyces cerevisiae [1] (setting [8]) it was 0.163 ± 0.019. In addition, the protein stability index in the data set on Saccharomyces cerevisiae [1] (setting [9]) amounted to 0.397 ± 0.024; in the data set with Saccharomyces cerevisiae [2], 0.288 ± 0.011.
